Experiment: soluble on expression in E. coli; label from the status in PepcDB or PDB records

Soluble on expression in E. coli, soluble:
GAMAEYEIDEITFHKRLGILLTSWKNEEDGKTLFQDCDSILVTVGAHDDTNPYQKSTALHTWLLGYEFPSTLILLEKHRITILTSVNKANMLTKLAETKGAAADVNILKRTKDAEENKKLFEKIIEYIRATNKKVGVFPKDKTQGKFINEWDSIFEPVKSEFNLVDASLGLAKCLAIKDEQELANIKGASRVSVAVMSKYFVDELSTYIDQGKKITHSKFSDQMESLIDNEAFFQTKSLKLGDIDLDQLEWCYTPIIQSGGSYDLKPSAITDDRNLHGDVVLCSLGFRYKSYCSNVGRTYLFDPDSEQQKNYSFLVALQKKLFEYCRDGAVIGDIYTKILGLIRAKRPDLEPNFVRNLGAGIGIEFRESSLLVNAKNPRVLQAGMTLNLSIGFGNLINPHPKNSQSKEYALLLIDTIQITRSDPIVFTDSPKAQGDISYFFGED
MDILQTRYFELSNPTTGEHKFYELTLHEDGTLISRYGRIGANGQNKTQQFNSVEAMLKAADKTTAEKLNKGYQVANAGETAAQETRHQRILRNVREFYELISNGDSKLAQRCSVEFKAFIEDEDNKEEYEDQDNELINNGIREAADWELVFFVDWKDTESMLDVLDTLCSNLNIDIVFDWGCDVPEDELKVGQIMLLAHEQLQQQGFALWHWDTGHDAYLGWIARMAYQTQIASCVQALDLDAAYPNPEKLTLEHHHHHH
TLAYKEGFYYKPRIDYELLEKYGEGLIALTACLKGVPTYYASINEVKKAEEWVKKFKDIFGDDLYLELQANNIPEQEVANRNLIEIAKKYDVKLIATQDAHYLNPE
GSPEFPPTIQEIKQKIDSYNSREKHCLGMKLSEDGTYTGFIKVHLKLRRPVTVPAGIRPQSIYDAIKEVNPAATTDKRTSFYLPLDAIKQMHISSTTTVSEVIQGLLDKFMVVDNPQKFALFKRIHKDGQVLFQKLSIADYPLYLRLLAGPDTDVLSFVLKEN
MAHMVNGKVALVTGAAQGIGRAFAEALLLKGAKVALVDWNLEAGVQCKAALHEQFEPQKTLFIQCDVADQQQLRDTFRKVVDHFGRLDILVNNAGVNNEKNWEKTLQINLVSVISGTYLGLDYMSKQNGGEGGIIINMSSLAGLMPVAQQPVYCASKHGIVGFTRSAALAANLMNSGVRLNAICPGFVNTAILESIEKEENMGQYIEYKDHIKDMIKYYGILDPPLIANGLITLIEDDALNGAIMKITTSKGIHFQDYGSKENLYFQ
MKITFIGGGNMAGAMIGGLIHHGSTPSHICAVETDAMRRQQLAEACGVTVTASIPDGIHGSEIVILAVKPQQLRAVANQAAQFLQNKLVISIAAGVRASDLSQWLNRHEFVIRAMPNTPALIGEGITGLYALPLVDSRQKEQATTILEAIGTVIWVNEEAQLDAVTALSGSGPAYVFYFLEAMQEAGTQLGLTADTAKQLAMQTFLGATHLAAQSNDTLATLRMKVTSQGGTTEQALLSMEQADIRGAFIRAMHAACDRSRQMGEIFGRTLEHHHHHH
MKAFILAAGSGERLEPITHTRPKAFVPILSKPLIEYQIEYLRKCGIRDITVIVSSKNKEYFEKKLKEISIVTQKDDIKGTGAAILSAKFNDEALIIYGDLFFSNEKEICNIITLKENAIIGVKVSNPKDYGVLVLDNQNNLSKIIEKPEIPPSNLINAGIYKLNSDIFTYLDKISISERGELELTDAINLMAKDHRVKVIEYEGYWMDIGKPWNIIDVNKWALDNLVFSQNLGNVEDNVKIKGKVIIEEDAEIKSGTYIEGPVYIGKGSEIGPNSYLRPYTILVEKNKIGASVEVKESVIMEGSKIPHLSYVGDSVIAEDVNFGAGTLIANLRFDEKEVKVNVKGKRISSGRRKLGAFIGGHVRTGINVTILPGVKIGAYARIYPGAVVNRDVGYGEFFKV
MEKKPWEEDISIEEFKKSLNKDKITNLIIKRRWNKGKSTYHLSFNGDFEVVTKKPSTKYVTHKQLDQKLKEFKQDLMVELHDTFATKADLRDSEARINQKLEALVQVVLLHGEQINKLTQIVEKQGEQIRELQVEQKAQRQEFNARMDRLENLLVESIESTNKRFDSIEGRLDSMDSRLDSMENRLDSIEGRLDSVEGRLDSVEGRLDSMENRLDSMETRLDKIDPPK
GKITFFEDRSFQGRCYECSSDCPNLQTYFSRCNSVRVDSGCWMLYERPNYQGHQYFLRRGEYPDYQQWMGFSDSIRSCRLIPHAGSHRMRLYEKEDHKGVMMELSEDCSCIQDRFHLSEVRSLQVLEGCWVLYEMPNYRGRQYLLRPQEYRRFQDWGSVDAKAGSLRRVVDLY
MSLGQDIGFYLGRIDSEMDSWVADPDEALKASNKLFFLNPFQANKVGIKGKANSNPNTQLSGDTGEGKSFAAKLIHLYSSFLKVKTLYIDPKLEMEANYKRVLKEFEEQDVYPEIQKYIRSLSFATLDSTKNENLGVLDPLVFLPKKRAKGLIVSMIGELIKYDSHISFKTELSHQLSLFADRRARGEQVGTLTVLKELYNHSERQDVRDTAESLIEDIKDSILGLVFSDGKNQAVDLNARNVILGVSGLDLPQDDSIVHSDLTLQQRYSLVIMYALGEFVIQFAERDYKEHTLEIVDEAWFLETSAVGRGIFNRMKRLNRRFNNFLYFVSQEIDDSNRGKDEKTAFGSYFCFRNDDSTKVDSILRRLGVQPTEESRKWFDNLSLGQCLYRDSANRVERVTFDGLFPEVKELFKTVENDSLEGHHHHHH
MTDSTPQGSTPGMSPEAILNGTGKPWEEWLKLLDDVKATSWTHTHIAKHIVDNFDVSGWWAQGIAIGYEYERGMRKPGMTSDGFAANASKTLNLPVEKVWKLFGDDDLRAQWLDPALIEKTSASEPRTFNAKWLADDSRVSVNFTSKGDNKSSFGIQHRRLPDQDSIPVMKAFWKERIAALVEVSKQFSLLEHHHHHH
MSLENNKAKMNEKEEIIFNSIRKNPYISQQELADILDLSRPTVANLISGLIKKGRILGKAYILNEAKQIVCIGGANVDRKFYIKDKAQLATSNPVRSTQSAGGVARNVGENLGRLGKEVILLTACGTDSDWEAVKNASNTYMNLDYVTAFPSIATGSYTAVLENNGDLLVALADMDAYDHLTPDVLAKNEGLLSQASAIIADLNCPKETLEYLGSFAEINSIPLVLVPVSSPKMSHLPERLDHVTWLICNRDESETHLEMTIENDEDWRLAAQKWLDLGVKNVIVTNGSKGAVAANNAEGIIFEPAIVIENIVDVTGAGDAFCSAVIYAWLEGKSLQEILKAGSVNAARTLESEYTVRQNLSTSQLQKDLEEFKEGHHHHHH
MSLKKIVIVGAGFAGVSATRLLAKNLKNDAEITVIDKHDFQTSMTQLHEVAASRVEADAVQYHLNRTIGKFNNVKVVKESLVELDKANKKVITDKNSYDYDYLVVSMGGEPNDFGVPGVNEYGFTLWSLEDALKIKAHLKEMVQAAAKEADSEKRKKLLTFSVAGSGFTGIEMAGELIDWRKKASKKYGIPESEFTINIVEMMPTIMNILDRSLADKALVYLQNKNINVLVNHGITAVAQDHITVNVGGRDEEKVVKEIPGNTLIWTTGVQGNTEAEACQLSETERGHRLQANEYMEAIGEENHGIYVAGDVSGYIVPENGRPTPQIVEAAEQTGSTAAKNIIADIKGGEKEGHHHHHH
MFSAKKLSPADKLKNISSMLEEIVEDTTVPRNIRAAADNAKNALHNEEQELIVRSATAIQYLDDISEDPNMPIHTRTQIWGIVSELETIK

Soluble on expression in E. coli, not soluble:
MNQLIFDFAAHDYPSFDKFLGTENAELVYVLRHKHGQFIYVWGEEGAGKSHLLQAWVAQALEAGKNAAYIDAASMPLTDAAFEAEYLAVDQVEKLGNEEQALLFSIFNRFRNSGKGFLLLGSEYTPQQLVIREDLRTRMAYCLVYEVKPLTDQEKIDALASMAAARQVTVDSEIFEYLLKHWRRDMDSLMMMLDTLDNYAVTMGKRITLPLLRQLLKQQETQ
MNSSSASIPRTAHAAVPTAHASRYLQQLCKHWAHKFEAEFDPIQARIALPLGEARLTARPDALLIDLTATDAANMTTFQQVVISHIERFAFREELRFVWG
MANMTFSLPDPMKDWIESRIQKGEYASASDYVRDLVRRDWARRGQDFSIDELRQIVAESRASGVGSRSMDDLFAEAERVATAHGVMRE
MGSDKIHHHHHHMTQITPQPGIMDIALYQGGAAHVDGVSNVTKLSSNENPLGPSPAAVEAMAEAAATMHRYPSSDHATLRAAIAETHGLDAERIICGAGSDEIIAFLCQCYAGPGDEVLYTEHGFAMYRISALAAGATPVEVKERERVTDVDALLAGCTAQTKLVFIANPNNPTGTMISEAEVARLADGIPEDAILVLDGAYAEYVEGFDAGAQLIAARHNVVMTRTFSKIYGLGGARVGWAYGPQEIIDVLNRVRGPFNVSTTALAGAEAAVRDTDYVQRCRLENAKWRGWLADQLAELGVPSDTSCTNFILARFASQSEAESCDDFLKQRGLIVRRVAGYNLPTALRITIGDETACRAVAAAVKDFKAGAAE
MAHHHHHHMSGILTNLNIESGYFNEDIKEESNESNFMYANISMLIRAYKKDRNKLILLNKKLNLIKIVGLVLNIEEKKEFIIYTIDDTTGCIKAKLLLTYSLNSYNEKKDNIKINDLIQIFGICNTVSLNEDLTISISSINKLDSFNYLCHHHLLVFHDYLKYQEEERRNPIEDKSRNDEDDLESTQNNENAYFNTFFY
MNTTGETTQPFYSHCDMNDPLCRAERLRTQFDYYRWHSLQPDDNDDVDTYTTDIATRIGKTQRYVCDHLDAIYYLTQLPQLHTVYQQLWHLDDTRLIAITRIISALPTTYYDAIDTHLTRWLTPTQPAQTIPSTRAITRFLRKTITHLGFHLDNTRKPEQYVYIYDAGHGLAGIDALIHAGVAEMFETTLRSIKKTHSCDDSTALQLLLEDKTSVVINVYDTGTGITYTPQGTALPQVPEHLVIRVLGDADVAVSTGYRFTEAMRRFIQGRDGVCRFPGCGVPAQWCDIDHVEEYDLGGVTGAVNAQCLCRHHHNVKTSRRVDCEIGAGGVVTWQIGDRRVVTTPEGVLAGQTFRQRREKKIKKAA
MKIESWKEGDFVNVPGKQAVSLEEFYRMRETTDRILEYIDGAVLMSPSPSTQHQRISGRLHVQLFHFLEGKPCEVFHAPFDIELKNERIEGKKIVVPDLTVICDRSGLTDSKFVGVPTLIIEILSPSNQAYDLVFKLNLYMQYGVGEYWIVNPMHSVVQIYSLNDDGQYEQAGVWKETGMACSRALDGFSVDVEQLFRP
MGSDKIHHHHHHMPTPRPWLYLGTTHALCEDCLALIPAKVVAEDGCVWHLKRCPAHGPQRTMISSDYAYWREARDFIKPGDLPAHFHTQVDKGCPHDCGLCPDHEQHSCLALVEVTDSCGLDCPTCFAQSRPGRGHRSLAEVEAMLDAVVRSEGGSPDIVQISGGEPADHPQILEILRAAKARPIRHVMLNTNGVRLARDPDFATALAGLGPGFEVYLQWDSLEPEALSVLRGADLREVRKGALAALDRHGISTTLVCVMAKGVNDGEVGAIIDHALAVACVRGVSFQPLQDAGRSPGLGKDSRMLPSDIRRAIIEQSNGLFGPADLVPLPCNPESITIAYALRHGNRATAVTGLVPRDLLLSAVPNALTFDAVPGLKDSLMRLLSMSCAGEDTAVQMGKLLCCLPGIQAPASLTYDKVFRLSIVQFLDRYSFCLGQVKRACVHVAQPDGKMIPIDTFNLFHRSNNHD
MIIAREKRRNNIAEYVLYMWQIEDLIRANELDMQRLRATVIAQYRQDTETTAEIDRWYAELVEMMLTEGVREQGHINIVRIAIMQMEEIHSRLMADPKEMIYQGLYYQVLPAIVQLRAKSAGSNTGEIETCLTAIYGLLTLRLQKKEVSEETLASIKQMSTLLSVLSEKFAAREEGTDEALL
